We go through two molecules from US20230052256A1 (DIZAL JIANGSU PHARMACEUTICAL, published 2023).

Experiment [1] addresses T1, human FGFR2b, endogenous, on KATOIII gastric cancer cells (human, UniProt P21802-3 22-822). The experiment can be described thus: cell-based or functional assay.
The target in experiment [2] is T1, human FGFR2b, endogenous, on KATOIII …. Kind of experiment: flow cytometry on KATOIII cells. The method, then: To confirm that the selected antibodies can bind to the endogenous forms of FGFR2b on the cell membrane, flow cytometry was performed using FGFR2b expressing KATOIII cells. All antibodies were prepared in PBS buffer with 10% donkey serum (Jackson Immunogen #017-000-121). 500,000 KATOIII cells were incubated with […] of different concentration of anti-FGFR2b antibody for 60 min at 4° C. Cells were washed twice and incubated in 100 μl of 10 μg/ml of 2nd IgG-Alexa488 antibody (Jackson Immunogen #709546149) for 30 minutes at 4° C. in the dark. Cells were washed three times and resuspended with wash buffer and analyzed on a flow cytometer.
On the technique in general: A flow cytometer gives signals particle by particle.

For experiment [3], the target named is T2, human FGFR2b ECD fused with murine Fc (human).
T2 construct: The ELISA text says only 'recombinant human FGFR2b-Fc'; also called recombinant human FGFR2b-Fc; hu FGFR2b
T2 chain: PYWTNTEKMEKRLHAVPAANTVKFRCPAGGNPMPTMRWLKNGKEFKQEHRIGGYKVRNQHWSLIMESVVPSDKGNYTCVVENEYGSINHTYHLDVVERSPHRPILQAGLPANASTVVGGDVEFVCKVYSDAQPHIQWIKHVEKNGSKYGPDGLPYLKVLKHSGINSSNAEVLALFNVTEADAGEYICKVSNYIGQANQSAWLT
Kind of experiment: ELISA, plate coated with human FGFR2b-Fc, anti-human IgG HRP. The method, then: (§1) The cross-species binding of Ab 26c to recombinant cyno, rat/mouse, and human FGFR2b-Fc fusion proteins was conducted with ELISA. In brief, 96-well ELISA plate were coated with about 100 μl/well 0.1 μg/ml recombinant human FGFR2b-Fc, recombinant rat/mouse FGFR2b-Fc, or recombinant cynomolgus FGFR2b-Fc protein in PBS overnight. Then the plate was blocked with 2% BSA in PBS with 0.05% Tween20 and incubation with antibody samples for 60 min at room temperature, and then washed twice in 1×TBST (Cell Signaling Technology, #9997) and followed by incubation with anti-human IgG HRP conjugate for 60 min at a room temperature. HRP activity was detected with tetra-methylbenzidine substrate (Cell Signaling Technology, #7004) and the reaction was stopped with stop solution (Cell Signaling Technology, #7002). The plate was read at 450 nm. […] Ab 26c has the highest binding affinity to rat/mouse FGFR2b, followed by human FGFR2b, and then cynomolgus FGFR2b.
(In general: An ELISA detects its analyte on a solid surface through an enzyme-linked reagent.)

In experiment [4] the target is T3, recombinant human FGFR1b-Fc (R&D Systems) (human, UniProt P11362-19 22-376, limits assumed).
T3 construct: Bought from R&D Systems; also called hFGFR1b-Fc; not shown: human Fc of the bought fusion protein
T3 sequence (looked up): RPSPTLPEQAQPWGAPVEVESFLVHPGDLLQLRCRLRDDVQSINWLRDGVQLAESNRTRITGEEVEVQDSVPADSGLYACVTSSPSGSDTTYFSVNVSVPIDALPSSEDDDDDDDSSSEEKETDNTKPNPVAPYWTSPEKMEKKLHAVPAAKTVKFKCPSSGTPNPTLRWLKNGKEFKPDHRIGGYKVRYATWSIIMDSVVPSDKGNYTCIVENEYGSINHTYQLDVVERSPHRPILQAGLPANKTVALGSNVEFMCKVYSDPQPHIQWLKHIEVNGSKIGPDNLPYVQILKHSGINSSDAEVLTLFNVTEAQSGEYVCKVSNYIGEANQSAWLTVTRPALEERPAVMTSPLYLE
The experiment can be described thus: SPR (Biacore T200), hFGFR1b-Fc amine-coupled to CM5 chip, antibody injected. How it is done: (§2) The binding of antibodies to human FGFR2b or human FGFR1b antigen was determined by surface plasmon resonance (Biacore). Briefly, CM5 sensor chip (GE Healthcare Life Sciences) was firstly activated by a 4 min injection of 1:1 freshly mixture of 50 mM N-hydroxysuccinamide (NHS): 200 mM EDC […]. Then hFGFR2b-Fc or hFGFR1b-Fc was immobilized to activated CM5 sensor chip using Amine Coupling Kit (GE Healthcare Life Sciences) and 1M ethanolamine as the blocking reagent. About 20-30 response units (RU, 1 RU represents the binding of 1 pg of protein per square mm) of antigen protein were captured.
(§3) Antibodies were diluted in HBS-EP+ running buffer (GE Healthcare Life Sciences) (10 mM HEPES, 150 mM NaCl, 3 mM EDTA, 0.05% surfactant P20, pH 7.4) and injected at serial concentration (0, 6.25, 12.5, 25, 50, 100, 150, 200 nM) and surface regeneration of the CM5 sensor chip were included in each running cycle. The association constant, dissociation constant were calculated with Biacore T200 evaluation software (version 1.0). […] In addition, Ab 26c is distinguished from the antibody FPA144 in terms of FGFR1b binding.

Experiment [5] has as its target T4, human FGFR2b (beta)-Fc, human Fc fusion (human).
T4 construct: range 65-267; Made in 293F cells; The Biacore and Ab 26 ELISA text says only 'hFGFR2b-Fc' or 'FGFR2b'; also called hFGFR2b-Fc; human FGFR2b-Fc
Kind of experiment: SPR (Biacore T200), hFGFR2b-Fc amine-coupled to CM5 chip, antibody injected. The method, then:
as §2, §3

The target in experiment [6] is T5, rat/mouse FGFR2b ECD fused with murine Fc (rat).
T5 construct: also called recombinant rat/mouse FGFR2b-Fc; rat FGFR2b
The experiment can be described thus: ELISA, plate coated with rat/mouse FGFR2b-Fc, anti-human IgG HRP. How it is done: as §1

Experiment [7] concerns the target T6, cynomolgus FGFR2b-Fc (ECD fused to murine Fc) (cynomolgus monkey).
T6 construct: also called recombinant cynomolgus FGFR2b-Fc; cyno FGFR2b
Kind of experiment: ELISA, plate coated with cynomolgus FGFR2b-Fc, anti-human IgG HRP. The method, then:
as §1

Experiment [8] addresses T3, recombinant human FGFR1b-Fc (R&D …). The experiment can be described thus: SPR (Biacore T200), hFGFR1b-Fc amine-coupled to a CM5 chip, antibody injected at 0-200 nM. The method, then:
as §2, §3

Experiment [9] addresses T4, human FGFR2b (beta)-Fc, human Fc fusion. Kind of experiment: SPR (Biacore T200), hFGFR2b-Fc amine-coupled to a CM5 chip, antibody injected at 0-200 nM. The method, then: as §2, §3
Background: In SPR one partner is held on a chip, and binding of the other changes the refractive index at the surface.

The target in experiment [10] is T7, recombinant human FGFR4-Fc (R&D Systems) (human, UniProt P22455 22-369).
T7 construct: Bought from R&D Systems; not shown: human Fc of the bought fusion protein
T7 sequence (looked up): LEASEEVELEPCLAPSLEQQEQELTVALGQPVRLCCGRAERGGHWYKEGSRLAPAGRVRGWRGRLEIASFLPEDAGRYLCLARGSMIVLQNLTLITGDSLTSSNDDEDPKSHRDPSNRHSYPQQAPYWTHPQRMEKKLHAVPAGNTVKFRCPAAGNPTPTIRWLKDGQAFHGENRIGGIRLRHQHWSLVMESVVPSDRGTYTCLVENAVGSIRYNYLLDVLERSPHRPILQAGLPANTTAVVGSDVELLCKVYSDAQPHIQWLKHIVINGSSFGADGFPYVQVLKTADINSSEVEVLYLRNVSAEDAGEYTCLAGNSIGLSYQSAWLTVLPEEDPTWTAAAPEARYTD
The experiment can be described thus: ELISA on HuFGFR4.

For experiment [11], the target named is T3, recombinant human FGFR1b-Fc (R&D …). Kind of experiment: ELISA on HuFGFR1b.
Experiment [12] concerns the target T4, human FGFR2b (beta)-Fc, human Fc fusion. The experiment can be described thus: ELISA on HuFGFR2b.
Experiment [13] concerns the target T8, recombinant human FGFR3b-Fc (R&D Systems) (human, UniProt P22607-2 23-377).
T8 construct: Bought from R&D Systems; not shown: human Fc of the bought fusion protein
T8 sequence (looked up): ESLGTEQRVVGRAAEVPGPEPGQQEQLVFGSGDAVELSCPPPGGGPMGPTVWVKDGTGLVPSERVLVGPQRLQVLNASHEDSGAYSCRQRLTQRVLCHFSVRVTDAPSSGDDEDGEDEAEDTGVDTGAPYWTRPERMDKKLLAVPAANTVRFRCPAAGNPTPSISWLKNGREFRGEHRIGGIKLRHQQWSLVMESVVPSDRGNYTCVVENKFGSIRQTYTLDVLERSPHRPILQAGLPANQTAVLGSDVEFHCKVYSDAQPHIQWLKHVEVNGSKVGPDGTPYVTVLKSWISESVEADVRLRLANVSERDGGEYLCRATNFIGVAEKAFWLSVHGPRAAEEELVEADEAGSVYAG
Kind of experiment: ELISA on HuFGFR3b.

T1 sequence (P21802 other isoform, or with tags, fused parts or gaps): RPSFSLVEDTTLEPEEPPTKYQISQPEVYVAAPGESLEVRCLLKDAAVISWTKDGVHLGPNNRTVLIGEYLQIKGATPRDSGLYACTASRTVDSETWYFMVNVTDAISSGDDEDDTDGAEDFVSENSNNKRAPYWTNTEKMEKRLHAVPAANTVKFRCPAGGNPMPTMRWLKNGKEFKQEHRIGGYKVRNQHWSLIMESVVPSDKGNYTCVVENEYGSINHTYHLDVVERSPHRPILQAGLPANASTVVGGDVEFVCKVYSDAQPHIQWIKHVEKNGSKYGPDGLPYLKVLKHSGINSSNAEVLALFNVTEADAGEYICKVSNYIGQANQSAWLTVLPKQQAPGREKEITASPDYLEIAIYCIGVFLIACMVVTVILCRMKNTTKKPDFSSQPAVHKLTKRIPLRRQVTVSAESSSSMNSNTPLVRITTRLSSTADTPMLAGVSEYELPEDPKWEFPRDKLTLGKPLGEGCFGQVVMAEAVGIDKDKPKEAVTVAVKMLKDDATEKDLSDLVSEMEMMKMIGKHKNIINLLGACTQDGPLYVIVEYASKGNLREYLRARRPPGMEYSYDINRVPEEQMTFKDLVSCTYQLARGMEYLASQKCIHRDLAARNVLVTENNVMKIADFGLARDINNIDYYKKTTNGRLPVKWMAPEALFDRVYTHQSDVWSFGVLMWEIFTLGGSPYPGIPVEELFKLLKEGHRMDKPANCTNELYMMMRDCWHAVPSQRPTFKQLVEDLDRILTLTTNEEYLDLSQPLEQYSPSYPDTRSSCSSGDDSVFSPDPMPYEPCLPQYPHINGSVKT

B1: Ab 26c (chimeric antibody based on Ab 26) (antibody, V domains shown)
VH: DVHLQESGPGLVKPSQSLSLTCSVTGYSITSGYYWNWIRQFPGNKLEWMGYITYDGSNNYNPSLKNRLSITRDTSKNQFFLQLSSLTTEDTATYFCARVYYYGSGNFDVWGTGTTVTVSS
VL: SIVMTQTPKILLVSAGDRVTITCKASQSVSNDVAWYQQKPGQSPKLLIYYASNRYTGVPDRFTGSGYGTDFTFTISTVQAEDLAVYFCHQDHTSPFTFGSGTKLEIK
notes: Mouse VH and VL fused to a human heavy chain constant region and a human light chain constant region; also called chimeric Ab26c
For the molecule B1, the “ADCC EC50, KATOIII target cells with human NK effector cells (E/T 8:1)” value in experiment [1] came out at 0.034 µg/mL. In experiment [2], the EC50 (commonly the concentration giving half of the maximal effect) is roughly 3 nM. Further, the EC50 (read off the curve) – broadly, the midpoint of the concentration-response curve – was roughly 0.2 nM in [3], roughly 0.2 nM in experiment [6] and roughly 0.6 nM in experiment [7]. The Kd (in general, the concentration at which binding is half-saturated) in experiment [4] was found to be 3.21 nM; in experiment [5], 1.68 nM. Further, the koff – broadly, the rate constant with which the complex falls apart – amounted to 0.000552 s⁻¹ in experiment [8] and 0.00017 s⁻¹ in [9]. Besides, the kon (in general, a measure of how fast the partners come together) in [8] is 172000 M⁻¹ s⁻¹; in [9], 101000 M⁻¹ s⁻¹.

B2: Ab 26 (mouse monoclonal antibody) (antibody, V domains shown)
VH: DVHLQESGPGLVKPSQSLSLTCSVTGYSITSGYYWNWIRQFPGNKLEWMGYITYDGSNNYNPSLKNRLSITRDTSKNQFFLQLSSLTTEDTATYFCARVYYYGSGNFDVWGTGTTVTVSS
VL: SIVMTQTPKILLVSAGDRVTITCKASQSVSNDVAWYQQKPGQSPKLLIYYASNRYTGVPDRFTGSGYGTDFTFTISTVQAEDLAVYFCHQDHTSPFTFGSGTKLEIK
notes: Mouse hybridoma antibody; also called mouse Ab 26
As to B2, the binding result in [10] and in experiment [13] was “no binding (tested: about 10^-7.3 M (about 5e-8 M))” in each case. In addition, the “EC50 (read off the curve)” value in experiment [11] is roughly 0.1 nM; in [12], roughly 0.08 nM.
